Positions count from the first letter of the chain named. Like-named read-outs stand apart in the source and are kept apart here.
T1: human IL-18BP (amino acids 31-194) (human, UniProt O95998 31-194, biotinylated on the AviTag (BirA ligase) where immobilized or used for staining)
T1 construct: Secreted decoy receptor; made in insect cells (gp67 signal peptide); also called hIL-18BP
T1 sequence: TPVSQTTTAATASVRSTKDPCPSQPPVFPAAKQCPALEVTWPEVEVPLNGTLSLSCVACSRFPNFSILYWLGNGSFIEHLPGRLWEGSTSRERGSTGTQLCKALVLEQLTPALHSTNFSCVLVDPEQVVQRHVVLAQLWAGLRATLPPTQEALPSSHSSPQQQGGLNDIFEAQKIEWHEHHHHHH

T2: IL-18 receptor (IL-18R) on HEK-Blue IL-18 reporter cells (UniProt Q13478 19-541; O95256 20-599, limits assumed)
T2 sequence (looked up) 1: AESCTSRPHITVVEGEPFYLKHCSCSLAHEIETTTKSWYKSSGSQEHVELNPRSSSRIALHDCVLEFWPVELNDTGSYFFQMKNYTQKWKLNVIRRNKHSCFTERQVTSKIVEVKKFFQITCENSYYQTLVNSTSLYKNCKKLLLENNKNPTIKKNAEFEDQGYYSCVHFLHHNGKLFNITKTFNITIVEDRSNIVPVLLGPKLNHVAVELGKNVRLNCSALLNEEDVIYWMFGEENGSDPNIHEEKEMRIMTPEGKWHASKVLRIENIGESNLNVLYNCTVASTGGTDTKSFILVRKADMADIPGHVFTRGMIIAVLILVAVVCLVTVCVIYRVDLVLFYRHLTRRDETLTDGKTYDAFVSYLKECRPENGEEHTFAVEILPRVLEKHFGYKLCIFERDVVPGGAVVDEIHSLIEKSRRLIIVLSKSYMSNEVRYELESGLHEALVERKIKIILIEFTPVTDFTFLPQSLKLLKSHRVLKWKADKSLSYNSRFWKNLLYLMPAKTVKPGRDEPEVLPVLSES
T2 sequence (looked up) 2: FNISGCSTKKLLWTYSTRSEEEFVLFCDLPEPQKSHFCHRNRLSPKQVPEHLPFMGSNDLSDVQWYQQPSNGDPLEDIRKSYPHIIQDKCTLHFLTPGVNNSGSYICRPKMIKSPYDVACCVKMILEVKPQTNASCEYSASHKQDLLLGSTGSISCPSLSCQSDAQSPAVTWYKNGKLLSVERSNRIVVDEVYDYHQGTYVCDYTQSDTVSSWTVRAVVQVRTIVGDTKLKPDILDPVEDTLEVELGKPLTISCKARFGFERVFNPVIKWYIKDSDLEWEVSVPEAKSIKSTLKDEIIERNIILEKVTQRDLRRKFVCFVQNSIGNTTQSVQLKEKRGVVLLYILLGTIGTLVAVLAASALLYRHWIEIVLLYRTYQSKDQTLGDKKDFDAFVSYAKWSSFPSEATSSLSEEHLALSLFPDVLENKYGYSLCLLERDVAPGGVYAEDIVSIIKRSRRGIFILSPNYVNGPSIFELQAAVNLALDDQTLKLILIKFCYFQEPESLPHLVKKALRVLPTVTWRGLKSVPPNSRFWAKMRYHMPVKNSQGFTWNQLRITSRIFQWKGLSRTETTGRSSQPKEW

T3: mouse IL-18BP (amino acids 31-194) (mouse, UniProt Q9Z0M9 29-193, biotinylated on the AviTag (BirA ligase))
T3 construct: Secreted decoy receptor; made in Expi293 cells (H7 signal peptide); the stated range is the same as for the human protein; also called mIL-18BP
T3 sequence: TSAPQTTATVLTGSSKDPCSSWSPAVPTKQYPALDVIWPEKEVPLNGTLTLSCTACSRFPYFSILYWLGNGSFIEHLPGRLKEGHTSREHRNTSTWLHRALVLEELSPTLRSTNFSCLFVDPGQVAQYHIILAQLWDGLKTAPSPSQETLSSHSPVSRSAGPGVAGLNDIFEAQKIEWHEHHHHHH

T4: mouse IL-18Rα ectodomain (amino acids 19-329) (mouse, UniProt Q61098 19-329, biotinylated on the AviTag (BirA ligase))
T4 construct: range 19-329; Secreted from Expi293 cells (H7 signal peptide); also called mIL-18Rα; Ra
T4 sequence: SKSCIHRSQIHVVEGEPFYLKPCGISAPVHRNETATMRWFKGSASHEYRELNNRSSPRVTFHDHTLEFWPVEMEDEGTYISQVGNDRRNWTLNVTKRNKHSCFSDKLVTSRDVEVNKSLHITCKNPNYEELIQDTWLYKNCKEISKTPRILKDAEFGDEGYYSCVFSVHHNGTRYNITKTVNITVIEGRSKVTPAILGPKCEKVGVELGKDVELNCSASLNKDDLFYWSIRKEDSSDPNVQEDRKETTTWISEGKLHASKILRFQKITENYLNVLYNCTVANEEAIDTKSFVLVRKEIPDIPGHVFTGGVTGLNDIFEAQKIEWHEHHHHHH

B1: 6-12 (ligand)
chain: YFGKLESKLSVIRNLNDQVLFIDQGNRPLFEDMTDSDCRDNAPRTIFIISKYSDSLARGLAVTISVKCEKISTLSCENKIISFKEMNPPDNIKDTKSDIIFFQRDVPGHSRKMQFESSSYEGYFLACEKERDLFKLILKKEDELGDRSIMFTVQNED
notes: recombinant with C-terminal hexahistidine tag in SPR and cell assays; also called h6-12; version 2.0 human DR-IL-18 variant
B2: hB9 (ligand)
chain: RFGKHESKLSVIRNLNDQVLFIDQGNRPLFEDMTDSDCRDNAPRTIFIISTYRDSQPRGKAVTISVKCEKISTLSCENKIISFKEMNPPDNIKDTKSDIIFFERNVPGHKYKMQFESSSYEGYFLACEKERDLFKLILKKEDELGDRSIMFTVQNED
B3: hA8 (ligand)
chain: B1 chain with K8R, S53K, S55K, L56Q, A57P, G59A, L60Q, S110K, R111H, V153I
notes: also called human DR-IL-18 variant A8
B4: 6-31 (ligand)
chain: B1 chain with S53G, L56G, Q103E, R111G, M113V
notes: recombinant with C-terminal hexahistidine tag in SPR and cell assays; also called h6-31; version 2.0 human DR-IL-18 variant
B5: 6-27 (ligand)
chain: B1 chain with L56R, Q103A, D105S, S110G, M113T
notes: recombinant with C-terminal hexahistidine tag in SPR and cell assays; also called h6-27; version 2.0 human DR-IL-18 variant
B6: hH3 (ligand)
chain: B2 chain with H5L, K8R, R53K, E103Q, N105D, Y111H
B7: hCS3 (ligand)
chain: B2 chain with H5L, R53K, E103Q, N105D, Y111H
notes: recombinant with C-terminal hexahistidine tag in SPR and cell assays
B8: hCS1 (ligand)
chain: B2 chain with R1Y, H5L, R53K, E103Q, N105D, Y111H
notes: as for B7
B9: mB1 (ligand)
chain: HFGRLHCTTAVIRNINDQVLFVDKRQPVFEDMTDIDQSASEPQTRLIIYGYADSDARAKAVTLSVKDSKMSTLSCKNKIISFEEMDPPENIDDIQSDLIFFQKSVPGHNKMEFESSLYEGHFLACQKEDDAFKLILKKKDENGDKSVMFTVTNLHQS
notes: recombinant with C-terminal hexahistidine tag in SPR
B10: mCS1 (ligand)
chain: B9 chain with H1N, D55R, A56V, A58G, S104R, V151L
notes: as for B9
B11: mC1 (ligand)
chain: B9 chain with H1N, G50A, A52V, S54R, D55R, A56L, A58G, S104K, V151L
notes: as for B9
B12: mCS2 (ligand)
chain: B9 chain with G50A, A52G, D55R, A58G, S104R, V151L
notes: recombinant with C-terminal hexahistidine tag in SPR; also called DR-IL-18 (mCS2); DR-18 variant mCS2

How the values were obtained:
[1] = target: T1, human IL-18BP (amino acids 31-194); assay: on-yeast isotherms; KD IL-18BP / KD IL-18Rα (20 µM used for NBD)
[2] = target: T1, human IL-18BP (amino acids 31-194); assay: SPR; KD BP / KD Ra normalized to WT IL-18
[3] = target: T2, IL-18 receptor (IL-18R) on HEK-Blue …; assay: cell-based or functional assay
[4] = target: T1, human IL-18BP (amino acids 31-194); assay: on-yeast isotherms; KD IL-18BP / KD IL-18Rα; on-yeast isotherms; ratio of two KDs
[5] = target: T1, human IL-18BP (amino acids 31-194); assay: SPR; KD IL-18BP / KD IL-18Rα; SPR; ratio of two KDs
Experimental: (§1) Experiments were conducted using a Biacore™ T100 (Protein analysis interaction system) and carried out at 25° C. Biotinylated IL-18Rα or TL-18BP were immobilized onto a Biacore™ biotin capture chip (Series S CAP sensor chip, GE Healthcare) to yield an Rmax of ˜50 RU (IL-18Rα) or ˜10 RU (IL-18BP). Measurements were made with serial dilutions of the IL-18 variants in HEPES buffered Saline-P+ buffer (10 mM HEPES pH 7.4, 150 mM NaCl, 0.005% surfactant P20). The surface was regenerated by three 60-see injections of regeneration buffer (3/4 (v/v) 8M guanidine hydrochloride with 1/4 (v/v) 1M sodium hydroxide). Experiments were performed in multiple channels simultaneously for increased observations. All data were analyzed with the Biacore™ T100 evaluation software version 2.0 with a 1:1 Langmuir binding model.
To additionally characterize the receptor binding activities of the DR-IL-18 variants, the cytokines were expressed recombinantly and surface plasmon resonance for IL-18Rα and IL-18BP was performed (see FIG. 5B for representative traces).

[6] = target: T2, IL-18 receptor (IL-18R) on HEK-Blue …; assay: cell-based or functional assay; remark: listed apart in the source
[7] = target: T3, mouse IL-18BP (amino acids 31-194); assay: on-yeast isotherms; KD IL-18BP / KD IL-18Rα (10 µM used for NBD); on-yeast isotherms; 10 µM put in for NBD
[8] = target: T4, mouse IL-18Rα ectodomain (amino acids …); assay: flow cytometry, mIL-18Rα titrated on yeast-displayed murine IL-18 variant (binding isotherm, %Max)
[9] = target: T3, mouse IL-18BP (amino acids 31-194); assay: SPR; KD IL-18BP / KD IL-18Rα; SPR; ratio of two KDs
Experimental: By contrast, very little binding is observed with the same variants and mIL-18BP (right). (FIG. 11B) Representative surface plasmon resonance sensorgrams between immobilized biotinylated mIL-18BP and the murine DR-IL-18 variants.
as §1

[10] = target: T3, mouse IL-18BP (amino acids 31-194); assay: SPR; KD BP / KD Ra normalized to WT IL-18

Binder | KD ratio: IL-18BP/IL-18Rα [1] | IL-18 BP:Ra Dissociation Constant Ratio [2] | KD ratio: IL-18BP/IL-18Rα [7] | KD ratio: IL-18BP/IL-18Rα [9] | further results
B1 | 1200 | > 9.32e+06 | – | – | EC50 (read off the curve); HEK-Blue IL-18 SEAP reporter, OD 655 nM [3]: ~0.6 nM
B2 | > 157 | – | – | – | –
B3 | > 347 | – | – | – | –
B4 | 490 | > 1.06e+06 | – | – | EC50 (read off the curve); HEK-Blue IL-18 SEAP reporter, OD 655 nM [3]: ~4 nM
B5 | 480 | > 5.86e+06 | – | – | EC50 (read off the curve); HEK-Blue IL-18 SEAP reporter, OD 655 nM [3]: ~1 nM
B6 | > 239 | – | – | – | –
B7 | – | 4350 | – | – | KD ratio: IL-18BP/IL-18Rα [4]: 103; KD ratio: IL-18BP/IL-18Rα [5]: 2.27
B8 | – | 3020 | – | – | KD ratio: IL-18BP/IL-18Rα [4]: 300; EC50 (read off the curve); HEK-Blue IL-18 SEAP reporter, OD 655 nM [6]: ~4 nM; KD ratio: IL-18BP/IL-18Rα [5]: 2.41
B9 | – | – | > 559 | 21000 | EC50 (read off the curve) [8]: ~20 nM
B10 | – | – | > 935 | 7040 | EC50 (read off the curve) [8]: ~10 nM
B11 | – | – | > 233 | 26300 | –
B12 | – | – | > 885 | 133000 | EC50 (read off the curve) [8]: ~10 nM; IL-18 BP:Ra Dissociation Constant Ratio [10]: > 7.5e+07

From patent US20250057918A1 (YALE UNIVERSITY, published 2025)
